Source: patent US8273705B2, “Conversion of apoptotic proteins” (The Burnham Institute, priority 2002, dated 2012)
Substitutions are numbered along the chain they refer to. In names and notes the source's numbering stands. Entries after “also recorded” stand apart in the source; their conditions may differ.

B1: Bcl-2/1-90: Bcl-2 mutant comprising the first 90 N-terminal amino acids (protein, UniProt P10415 1-90, looked up, fragment)
chain: MAHAGRTGYDNREIVMKYIHYKLSQRGYEWDAGDVGAAPPGAAPAPGIFSSQPGHTPHPAASRDPVARTSPLQTPAAPGAAAGPALSPVP
modifications: GFP fusion
notes: Bcl-2 mutant comprising the first 90 N-terminal amino acids
B2: TR3/ΔDBD/L487A: TR3/ΔDBD with Leu487 replaced with Ala (protein)
chain: MPCIQAQYGTPAPSPGPRDHLASDPLTPEFIKPTMDLASPEAAPAAPTALPSFSTFMDGYTGEFDTFLYQLPGTVQPCSSASSSASSTSSSSATSPASASFKFEDFQVYGCYPGPLSGPVDEALSSSGSDYYGSPCSAPSPSTPSFQPPQLSPWDGSFGHFSPSQTYLVLHRLQCARGFGDWIDSIAAFSRSLHSLLVDVPAFACLSALVLITDRHGLQEPRRVEELQNRIASCLKEHVAAVAGEPQPASCLSRLLGKLPELRTLCTQGLQRIFYLKLEDLVPPPPIIDKIFMDTLPF
modifications: left off: large carriers; small tags and cut ends
notes: TR3/ΔDBD with Leu487 replaced with Ala
B3: TR3/ΔDBD/I483A: TR3/ΔDBD with Ile483 replaced with Ala (protein)
chain: B2 chain with I183A, A187L
modifications: left off: large carriers; small tags and cut ends
notes: TR3/ΔDBD with Ile483 replaced with Ala
B4: TR3/ΔDBD/ΔDC1: TR3/ΔDBD with DC1 deleted (protein)
chain: MPCIQAQYGTPAPSPGPRDHLASDPLTPEFIKPTMDLASPEAAPAAPTALPSFSTFMDGYTGEFDTFLYQLPGTVQPCSSASSSASSTSSSSATSPASASFKFEDFQVYGCYPGPLSGPVDEALSSSGSDYYGSPCSAPSPSTPSFQPPQLSPWDGSFGHFSPSQTYEHVAAVAGEPQPASCLSRLLGKLPELRTLCTQGLQRIFYLKLEDLVPPPPIIDKIFMDTLPF
modifications: left off: large carriers; small tags and cut ends
notes: TR3/ΔDBD with DC1 deleted
B5: DC1: C-terminal fragment of TR3 (467-536 aa), 69 amino acids (protein, listed as Homo sapiens)
chain: GLVLHRLQCARGFGDWIDSILAFSRSLHSLLVDVPAFACLSALVLITDRHGLQEPRRVEELQNRIASCLK

Tests used:
LNCaP cells = experiment: Dominant-negative Bcl-2/1-90 in LNCaP cells; type: cell-based
Description: The next approach involved using a fragment of Bcl-2 consisting of the TR3 interaction domain (loop region) to identify whether it could act in a dominant-negative fashion to inhibit TR3 mitochondrial targeting in LNCaP cells. Cells transiently transfected with the GFP-Bcl-2/1-90 mutant comprising of the first 90 N-terminal amino acids were treated with TPA to induce expression of TR3 and mitochondrial targeting of the endogenous TR3. […] Thus, Bcl-2/1-90 inhibits TR3 mitochondrial targeting, probably by competing with endogenous Bcl-2 for binding to TR3.
The effect of inhibiting endogenous Bcl-2 expression on the TR3-dependent apoptosis in MGC80-3 cells was next analyzed. […] However, 3-Cl-AHPC-induced apoptosis was suppressed by more than half (about 60%) in Bcl-2 siRNA-transfected cells. Similar results were obtained in H460 lung cancer cells. […] Thus, Bcl-2 can manifest a pro-apoptotic phenotype in settings where TR3 is expressed and targets to mitochondria.

293T cells [1] = experiment: DAPI apoptosis assay in 293T cells; type: cell-based, human; settings: 293T, co-expressed with Bcl-2, 36 h, DAPI
Description: Apoptosis assays—For nuclear morphological change analysis, cells were trypsinized, washed with PBS, fixed with 3.7% paraformaldehyde, and stained with DAPI (4,6-diamidino-2-phenylindole) (50 μg/ml) to visualize the nuclei by UV-microscopy. The percentages of apoptotic cells were determined by counting 300 GFP-positive cells, scoring cells having nuclear fragmentation and/or chromatin condensation.
DAPI staining was used to study the apoptotic effect of TR3/Bcl-2 interaction. 293T cells were transfected with GFP-TR3/ΔDBD alone or together with Bcl-2. After 36 h, nuclei were stained by DAPI and nuclear fragmentation and chromatin condensation were identified. Cells were also stained with anti-Bcl-2 antibody, followed by TRITC-conjugated secondary antibody (Sigma). Bcl-2 and GFP-ΔDBD expression and nuclear morphology were visualized by fluorescence microscopy, and the two images were overlaid. […] But, when Bcl-2 was cotransfected, a significant amount of transfected cells underwent apoptosis. For example, approximately 4% of cells transfected with either TR3/ΔDBD or Bcl-2 were apoptotic, compared to 35% of cell transfected with both. […] Cotransfection of Bcl-2, however, prevented BAX-induced apoptosis in these cells (see FIG. 4). The effect of Bcl-2 on apoptotic potential of TR3/ΔDBD in lung cancer and breast cancer cells was also investigated.
To characterize the pro-apoptotic mechanism of Bcl-2 in the setting of TR3-induced apoptosis, various TR3 mutants and Bcl-2 mutants were co-expressed in HEK293T cells. TR3 mutants were transfected into 293T cells together with or without Bcl-2 expression vector or with Bcl-2 mutants. After 36 h, nuclei were stained by DAPI. Cells displaying nuclear condensation or fragmentation were scored.
The role of various Bcl-2 mutants in mediating apoptosis induction by TR3 was next studied. […] The hydrophobic cleft of Bcl-2 is involved in its anti-apoptotic effect through its interaction with BH3 domain of pro-apoptotic molecules (Reed 1997 Semin Hematol 34:9-19; Reed 1997 Nature 387:773-776). To investigate whether the BH3 domain-binding motif of Bcl-2 is also involved in its apoptotic effect, various Bcl-2 mutants including Y108K Bcl-2, with a mutation in the BH3 domain-binding cleft, L137A, and G145A (all with impaired interaction with bax), were cotransfected together with TR3/ΔDBD. […] Bcl-2 mutations (Y108K, L137A, G145A) that impaired its interaction with Bax, abolished the Bcl-2 inhibitory effect on Bax-induced apoptosis, consistent with previous observations that the hydrophobic cleft of Bcl-2 is essential for its anti-apoptotic effect. […] Thus, an intact BH3 domain-binding motif in Bcl-2 is involved in its pro-apoptotic effect. In contrast to the inhibitory effect of Bcl-2 on Bax-induced apoptosis TR3/ΔDBD-induced apoptosis was augmented by co-expression of Bcl-2 in HEK293T cells.
Mitochondrial targeting of TR3 has been previously identified as being involved in its apoptotic effect. To study whether mitochondrial localization of the TR3/ΔDBD/Bcl-2 complex was involved in their apoptotic effect, TR3/ΔDBD was cotransfected with Bcl-2/ATM, a Bcl-2 lacking its transmembrane domain. […] Thus, mitochondrial localization of TR3/ΔDBD/Bcl-2 complex is involved in this apoptotic effect.

293T cells [2] = experiment: Confocal microscopy of mitochondrial targeting in 293T cells; type: cell-based, human
Description: Subcellular localization assays—Cells were seeded onto cover-slips in 6-well plates overnight, then transiently transfected with GFP-fusion expression plasmids. After 16 hours, cells were washed with PBS and fixed in 4% paraformaldehyde. For mitochondrial staining, cells were then incubated with anti-Hsp60 goat IgG (Santa Cruz, USA), followed by anti-goat IgG conjugated with Cy3 (Sigma). For cyt c staining, cells were incubated with monoclonal anti-cyt c IgG (PharMingen), followed by anti-mouse IgG conjugated with Cy5 (Amersham). Fluorescent images were collected and analyzed using a MRC-1024 MP laser-scanning confocal microscope (Bio-Rad). Subcellular fractionation assays were performed as described (Li, et al. 2000 Science 289:1159-1164). Briefly, cells (1×10^7 cells) suspended in 0.5 ml hypotonic buffer (5 mM Tris-HCl, pH 7.4, 5 mM KCl, 1.5 mM MgCl2, 0.1 mM EGTA, pH 8.0, and 1 mM DTT) were homogenized and cell extracts were centrifuged at 500×g for 5 min. The resulting supernatant was centrifuged at 10,000×g for 30 min at 4° C. to obtain the HM fraction. HM fraction was resuspended in 100 μl lysis buffer (10 mM Tris, pH 7.4, 150 mM NaCl, 1% Triton X-100, 5 mM EDTA, pH 8.0) for immunoblotting analysis.
A. confocal microscopy—First an experiment was performed to determine whether the deletion mutant TR3/ΔDBD targets mitochondria via its interaction with Bcl-2. In confocal microscopy analysis, GFP-TR3/ΔDBD and Bcl-2 were transfected into 293T cells alone or together. […] Bcl-2, TR3/ΔDBD and mitochondria (Hsp60) were visualized using confocal microscopy and the three images were overlaid.

Bcl-2 = target: T1, Bcl-2 (Homo sapiens, UniProt P10415); experiment: Co-IP assay of TR3 mutants with Bcl-2 in HEK293T cells; type: binding; settings: GFP fusions co-transfected with Bcl-2 in HEK293T cells
T1 construct: expressed in transfected cells; host or cells: HEK293T
T1 sequence (P10415 whole entry, the tested form may be a part): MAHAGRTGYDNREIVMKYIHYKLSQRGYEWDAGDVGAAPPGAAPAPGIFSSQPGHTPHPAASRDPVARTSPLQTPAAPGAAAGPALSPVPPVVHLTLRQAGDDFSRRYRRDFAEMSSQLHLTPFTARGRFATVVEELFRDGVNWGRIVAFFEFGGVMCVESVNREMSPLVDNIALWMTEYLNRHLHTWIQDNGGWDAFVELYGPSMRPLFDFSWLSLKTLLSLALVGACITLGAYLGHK
Description: TR3/Bcl-2 interaction assays—Reporter gene assays using NurRE-tk-CAT in CV-1 cells, and GST pull-down assay were described previously (Li, et al. 2000 Science 289, 1159-1164). For the mammalian two-hybrid assays, CV-1 cells were co-transfected with pcDNA-Gal4TAD-TR3 or pcDNA-Gal4TAD-TR3/ΔDBD and pcDNA-Gal4DBD-Bcl-2/ΔTM along with a luciferase reporter gene driven by four copies of the Gal4-binding site. The cells were harvested and reporter gene activity was measured. For Co-IP assays, HEK293T cells were transiently transfected with various expression plasmids using a modified calcium phosphate precipitation method (Wu et al, 1997) in the presence of caspase inhibitors (zVAD-fmk) to prevent degradation of TR3 protein due to apoptosis. Cells were suspended in lysis buffer (50 mM Tris-HCl, PH7.4; 150 mM NaCl; 20 mM EDTA; 1% NP-40; 1 mM PMSF; 50 μg/ml Leupeptin; […]; 0.1 mM Na3VO4; and 1 mM DTT). Cells extracts were cleared by incubation with the Protein A/G plus Agarose beads (Santa Cruz) and then incubated with appropriate antibody and 30 μl of Protein A or G plus Agarose beads overnight at 4° C. Beads were then washed and boiled in Laemmli gel-loading solution before performing SDS-PAGE/immunoblotting using the following polyclonal or monoclonal antibodies: monoclonal mouse anti-GFP (Medical and Biological Laboratories), monoclonal mouse anti-HA (Roche Molecular Biochemicals), monoclonal mouse anti-FLAG (Sigma), monoclonal mouse anti-Myc (Santa Cruz), polyclonal rabbit anti-TR3 (Active Motif), or monoclonal mouse anti-Bcl-2 (Santa Cruz). Immunoreactive products were detected by chemiluminescence with an enhanced chemiluminescence system (ECL) (Amersham).
TR3/ΔDBD, which can constitutively reside on mitochondria, was also analyzed by co-immunoprecipitation (Co-IP) assay for its interaction with Bcl-2. GFP-TR3/ΔDBD was transfected into human embryonic kidney cell line 293T alone or together with a Bcl-2 expression vector. The expressed GFP-TR3/ΔDBD mutant protein as then precipitated by using either anti-Bcl-2 antibody or control IgG and detected by western blotting using anti-GFP antibody. The same membranes were also blotted with anti-Bcl-2 antibody to determine precipitation specificity and efficiency. Input represents 10% of total cell extract used in the precipitation assays.
Several TR3 mutants were analyzed to determine the domain of TR3 which interacts with Bcl-2. The TR3 mutants are schematically represented in FIG. 1. A Co-IP assay was performed, as described above. […] Cell extracts were prepared and incubated with anti-Bcl-2 antibody or control IgG for Co-IP assays. Lysates were immunoprecipitated by using either polyclonal rabbit anti-Bcl-2 antibody or control IgG. Cell lysates and immunoprecipitates were examined by immunoblotting using anti-GFP antibody. The same membranes were also blotted with anti-Bcl-2 antibody (Santa Cruz) to determine IP specificity and efficiency. […] This Co-IP was specific because Bcl-2 co-transfection was necessary. […] Thus, the DC1 region in the TR3 LBD is involved in the Bcl-2 interaction.
To further determine the interaction of DC1 with Bcl-2, a region of hydrophobic amino acids ([…]—SEQ ID NO: 1) was deleted from TR3/ΔDBD, and the resulting mutant (TR3/ΔDBD/Δ471-488) was analyzed for its interaction with Bcl-2. TR3/ΔDBD/[…], with eighteen amino acids from 471 to 488 in the DC1 region deleted from TR3/ΔDBD, TR3/ΔDBD/I483A (with Ile483 replaced with Ala) and TR3/ΔDBD/L487A (with Leu487 replaced with Ala) were analyzed for their interaction with Bcl-2 by in vivo Co-IP assay as described above.

Molecule | TR3-dependent apoptosis induced by TPA and 3-Cl-AHPC (LNCaP cells; LNCaP cells) | mitochondrial targeting of endogenous TR3 (LNCaP cells; LNCaP cells treated with TPA) | apoptosis (293T cells [1]) | colocalization with mitochondria (293T cells [2]) | interaction with Bcl-2 (Co-IP) (Bcl-2) | apoptosis (293T cells [1]; listed as TR3/ΔDBD/ADC1)
B1 | suppressed TR3-dependent apoptosis | TR3 failed to target mitochondria | – | – | – | –
B2 | – | – | failed to confer the apoptotic potential of Bcl-2 | failed to colocalize with mitochondria | significantly impaired the interaction; also recorded: largely abolished the interaction | –
B3 | – | – | failed to confer the apoptotic potential of Bcl-2 | – | largely abolished the interaction | –
B4 | – | – | failed to confer the apoptotic potential of Bcl-2 | – | largely abolished the interaction | did not result in apoptosis
B5 | – | – | potently induced apoptosis | – | strongly interact with Bcl-2 | –
